Results as given in the supplement of paper PMC9170038.

test system: K4 kissing-loop RNA reporter; assay: apparent KD of K4 kissing-loop reporter; higher = weaker reporter binding; details: Eterna round: R107; input ligand: theophylline 20 uM
Protocol: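 RNA-MaP round R107: designed RNA switches with theophylline, tryptophan, arginine or FMN aptamers are transcribed on-chip within common flanks. They are titrated with a labelled K4 kissing-loop RNA reporter in RNA-MaP buffer (100 mM Tris pH 7.5, 80 mM KCl, 4 mM MgCl2), without ligand or with the indicated ligand. Median apparent KD per design.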
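Further: bound reporter read as fluorescence of individual clusters on recovered sequencing chips by microscopy, with normalized cluster intensities fitted with a binding model.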

Row | Sequence | apparent KD of K4 kissing-loop reporter [nM]
1 | AUGCGACGUGCGGCCGCCACUCGGAUGCGAGUGAUGUUCGCGGGCCGGCCGCAAGGCCGGCAUUCGAGGACCGGGCAUCGGUGUA [#2 Same State - Tryptophan B Attempt #1 (HarryS)] | 493
2 | UGACUGGACUGAAGGAGCGCGAAACUCCUAGUGAUGUUAGGAAUACGAGACAAAGUCUCGACGCAGGUAGGUCGCAGUCUAGUCU [ArgBS 16 #SwitchBubble #StaticStem] | 110
3 | GGAUAGGACAGAGGAUAUGGACAGUCUACAAAGUAGGCUGAAAAUCCUUGAAUGGAAGUGAUGUUUCUAGAAGGCUGUCCUAUCG [FmnBX 19 - #SwitchBubble #StaticStem #Palindromic] | 174
4 | AGUAAUGUCACGGCCGCCACUCUUUAUUGUUUUUAUAGUUAUAAAUCUUGCCAGUGAUGUUGGUAGAGGACCGGGUGACUUAAUA [#26 K4 Tryptophan B Same State] | 199
5 | AGUGAUGUUGUGUUAUGCUAGGGAAGUGAUCGAGGACCGGUACGGCCGCCACUCGAGUGAUGAGUGAGUGAUGUUUGUUUAGGGA [sdsmullin] | 844
6 | GCAUCCUAGUCGGCCGCCACUAACAUGAGUGAUGUUCAUGUACGUCAGUGAUGUUGACGUAGUUAUAGGACCGGGACUAGGAUGC [KL-SSTryp-B7 Brourdwalk3] | 118
7 | AUUUUGUUGUCAGGAUAUUAGUAUGGUUUUGGUUUGUUAGUGAUGUUGAUGGUUUGUUUAUGUAUUUAAGAAGGGAUUUAGCGGU [swwsgumullin] | 573
8 | UUUAUAAUGUCGGCCGCCACUGGAUUAAUAUUUGUAUAAUCUAGUUCAAAGUGAUGUUUUGAGUCCAGGACCGGGACAUUUGUUA [JR_ExcTryptoB_Sub003] | 509

same assay, conditions: Eterna round: R107; input ligand: tryptophan 2.4 mM

Row | Sequence | apparent KD of K4 kissing-loop reporter [nM]
9 | UUUUUUAAGAUAUUGACCAACCCGAAGCUACGAGGACCGGUACGGCCGCCACUCGCCAGUGAUGUUGGCGACUGGUGAAACCAUG [KL-XTryp-A24] | 185
10 | GGAGGAGAAUAUGAUACCAGCAGAGAGAGAUACGAAGUAUAGUGAUGUUAUAUGAGAGAAUGCCCUUGGCAGCAUAAGACGCAGG [#08 K4 Theophylline B Same State] | 84.8
11 | CUUGGAAGGACGGCCGCCACUCGACAGUGAUGUUGUCCGAGUUGGUAACGCAGUGAUGUUGUGUCGAGGACCGGGUCCUAGGAAU [Exclusion Tryptophan B GF 26] | 147
12 | UGAUUGGCAAAAGUAGUGAUGUUACGAAUAUAGGAUAUUAGAGGAAUAAGAAGGAUAAGGGAGAAAUAGGUAAAUUGUUGGUUGG [whbob_SS_FMNA__2th171] | 70.3
13 | UAUAAUUCGGCGGCCGCCACUGACCAUAGCCUUCGAUGGCCAGUGAUGUUGGCCUCUGGCUCUAACAGGACCGGGCCGAAUUGUG [Reresoza] | 120
14 | UGAUAGGACAGAAGGAGCGGAAUGCUAGUCAAAGACUAGCAACGUUAAACAGGAGUGAUGUUCCAGGUAGGUCGCUGUCCUAUCU [ArgBX 22 #SwitchBubble #StaticStem] | 113
15 | CAUUCGAAAUGCAGUGAUGUUGCAACUGAUACCAGUAUCGAAAGAUACCCUUGGCAGCGGAAAACCGCUACGUAUUUUUUGAAUG [Ex Theophylline A K4 25] | 253
16 | AGUGGUGUUGUGUUAUGUUUGGGAAGUGAUCGAGGACCGGUACGGCCGCCACUCGAGUGAUGAGUGAGUGAUGUUUGUUUAGGGA [whbob_SS_Tryp_A_m10] | 658
17 | UGACUGGACUGAAGGAGCGUUGAAGGAGCGUAAGUAGUGAUGUUGCUUACAGGUAGGUCGCAGCAGGUAGGUCGCAGUCUAGUCU | 52.6
18 | UGUACCGAGUCAGGAUAUGGCCGGAAACGGAAUAACCAGUGAUGUUGGAAUAAAUGGCGAAAGCCUCCAGAAGGGACUUGGUACU [FmnBS 18 #SwitchBubble #StaticStem #DoubleMagnetSystem] | 185
19 | AGAACUGUCUGAGAUACCAGCUAAGGAGUGAUGUUCCUAGGUCCACGAAAGUGGACCCAUAGCCCUUGGCAGCUCAGACAGUUCA [#23 K4 Theophylline B Same State] | 1160
20 | CGGAUGUAGUGAUGUUAUAUUAGAUGUAGACGAGGACCGGUACGGCCGCCACUCGUGACGGCUGCUAGCGCGUUGCGAGGUGUGC [ExTryptoA.Cm] | 603
21 | UUAGUCAGAUUAUUAUUAGCCUGCGAGUCUAAGGAUAUCCGAAUUCGGAGAAGGUAGUGAUGUUACUUUGGCAGGCACUGACAUU [AK9 Exc FMN A] | 351
22 | GGAUAGGACAGAGGAUAUGGUAGUGAUGUUACCAAACUGGUUACUUUUGUCAGAAAACUGGCAUUUCCAGAAGGCUGUCCUAUCG [KL-XFMN-B12] | 68.3
23 | AUUUAAUUAACUGAUACCAGACUUUUUGUUUUGAUAAUUACUAGUGAUGUUAGUGUUUCUGUCCCUUGGCAGCAGAAUCUACUUA [JR_ExcTheophyB_Sub018] | 137
24 | AUAGGAGUGAUGUUCCUUAGUCUCUCCGAUACCAGUAUGGAAACAUACCCUUGGCAGCGGGAGACCGCAGAUUAGGAAACUAGUC [Theophylline A K4 5] | 172

Row | Sequence | apparent KD of K4 kissing-loop reporter [nM]
25 | GGGAAGGGACACAAGGAGGAACGAAGGGAAGGAGCGCCGGAGGAGGCAGGUAGGUCGCCCAACCAGUGAUGUUGGAAUUUAAUCC [Default title] | 196
26 | UCCCGAGUGAUGUUCGGCGCGGUCACCGAAGGAGCGGGCGAAAGCCCAGGUAGGUCGCGGUAGCGGAGUGAUUCUCCGCGACCGC [Same State Arginine A GF 24] | 298
27 | AAGUGUCAUUAGACACACUGAUGUAUAAACUAGGAUAUGCUGAUAAGCAGAAGGAGUGAUGUUCCUUUCAACAUCAGAAUUAAAU [KL-XFMN-A1] | 126
28 | AAUAAAAUCACGGCCGCCACUGAUGUUAAUAUUAGCAGUGAUGUUGCUAUGUCGUUUUUCUUUAACAGGACCGGGUGAAUAUUUA [#22 K4 Tryptophan B Exclusion] | 148
29 | UUUAACGAGUGAUGUUCGAAGAGUAAUGGUGAGGAUAUCGAUUUUUCGAGAAGGCACCUCGAAGUGAUACGAAAGUAUCGCUUCG [FMN A 5] | 181
30 | CGCUUUGCGUCCGGUAGUGAUGUUACCAAGCGAGGACCGGUACGGCCGCCACUCGAGUGACAGACGUACUGGUAUCACCCGCUUU | 208
31 | AUUUGUUUAUGUGAUACCAGACUAAGCAGUGAUGUUGCUUUUAUUUUUGAAUUUUAAAUAGUCCCUUGGCAGCACUAUGUAUUUA [JR_SSTheophyB_Sub010] | 60.3
32 | ACGACGCAUAGUGAUACCAGCAUUAUAUGAGUGAUGUUCUACCUAAAAUGGUAAUAAUGAUGCCCUUGGCAGCACUAUGCGUCAG [KL-SSTheoB2] | 283
33 | AUGCGACGUGCGGCCGCCACUCGGAUGCGAGUGAUGUUCGCGGGCCGGCCGCAAGGCCGGCAUUCGAGGACCGGGCAUCGGUGUA [#2 Same State - Tryptophan B Attempt #1 (HarryS)] | 116
34 | UGACUGGACUGAAGGAGCGCGAAACUCCUAGUGAUGUUAGGAAUACGAGACAAAGUCUCGACGCAGGUAGGUCGCAGUCUAGUCU [ArgBS 16 #SwitchBubble #StaticStem] | 100
35 | GGAUAGGACAGAGGAUAUGGACAGUCUACAAAGUAGGCUGAAAAUCCUUGAAUGGAAGUGAUGUUUCUAGAAGGCUGUCCUAUCG [FmnBX 19 - #SwitchBubble #StaticStem #Palindromic] | 180
36 | AGUAAUGUCACGGCCGCCACUCUUUAUUGUUUUUAUAGUUAUAAAUCUUGCCAGUGAUGUUGGUAGAGGACCGGGUGACUUAAUA [#26 K4 Tryptophan B Same State] | 194
37 | AGUGAUGUUGUGUUAUGCUAGGGAAGUGAUCGAGGACCGGUACGGCCGCCACUCGAGUGAUGAGUGAGUGAUGUUUGUUUAGGGA [sdsmullin] | 490
38 | GCAUCCUAGUCGGCCGCCACUAACAUGAGUGAUGUUCAUGUACGUCAGUGAUGUUGACGUAGUUAUAGGACCGGGACUAGGAUGC [KL-SSTryp-B7 Brourdwalk3] | 120
39 | AUUUUGUUGUCAGGAUAUUAGUAUGGUUUUGGUUUGUUAGUGAUGUUGAUGGUUUGUUUAUGUAUUUAAGAAGGGAUUUAGCGGU [swwsgumullin] | 424
40 | UUUAUAAUGUCGGCCGCCACUGGAUUAAUAUUUGUAUAAUCUAGUUCAAAGUGAUGUUUUGAGUCCAGGACCGGGACAUUUGUUA [JR_ExcTryptoB_Sub003] | 407
